Measured values from paper PMC3858360.

Biological target: human Myo5a globular domain, Myo5a (1467–1855) (human) (UniProt Q9Y4I1)
Test: SPR; Biacore 3000, 25°C; Myo5a GD covalently immobilised on a CM5 chip (50–100 RU); steady-state binding with a multi-injection protocol, HMM 0–413 nM; 20 mM MOPS-KOH pH 7.0, 0.1 M NaCl, 2 mM MgCl2, 0.5 mM EGTA, 10 µM Calmodulin, 1 mM TCEP

Chain of UniProt Q9Y4I1 (Q9Y4I1 1467-1855): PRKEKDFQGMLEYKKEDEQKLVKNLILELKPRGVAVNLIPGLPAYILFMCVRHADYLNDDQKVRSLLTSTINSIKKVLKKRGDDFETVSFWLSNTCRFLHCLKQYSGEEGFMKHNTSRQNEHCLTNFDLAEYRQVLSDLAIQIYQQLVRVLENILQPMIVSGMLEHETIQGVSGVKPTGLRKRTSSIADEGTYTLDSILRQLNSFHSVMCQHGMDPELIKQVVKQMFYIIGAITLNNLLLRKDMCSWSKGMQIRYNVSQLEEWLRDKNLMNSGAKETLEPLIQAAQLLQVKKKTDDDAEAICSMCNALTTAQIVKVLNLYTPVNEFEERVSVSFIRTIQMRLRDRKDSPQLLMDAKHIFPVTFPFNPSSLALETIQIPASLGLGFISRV

With “murine Myo5a HMM complex: Myo5a (1–1105) C-terminally fused to GCN4-Flag, coexpressed with essential light chains and calmodulins (from UniProt Q99104 1-1105; P0DP26 1-149)” as the substance, how does the Kd read?
The Kd was 30 nM.
